Measurements published in US20250215089A1 (HARBOUR BIOMED SHANGHAI, published 2025).
Positions count from the first letter of the chain named. In names and notes the source's numbering stands.

B1: PR007276 (bispecific antibody, human IgG1, kappa)
heavy: QVQLVESGGGVVQPGMSLRLSCAASGFDFSSYGMYWVRQAPGKGQEWVASIRYTGTEKHYADSVKGRFTISRDNSKNTLYLEMNSLRVEDTAVYYCAKNRALFGVIPDDSDIRGQGTMVTVSSGGGGSQVQLVQSGAEVKKPGASVKVSCKASGYTFAGYYMYWVRQAPGQGLEWMGWINPDSGAPTYAQKFQGRVTMTRDTSISTAYMELSRLRSDDTAVYYCAREKIYYGSGNYYPSFDYWGQGTLVTVSSASTKGPSVFPLAPSSKSTSGGTAALGCLVKDYFPEPVTVSWNSGALTSGVHTFPAVLQSSGLYSLSSVVTVPSSSLGTQTYICNVNHKPSNTKVDKKVEPKSCDKTHTCPPCPAPEAAGAPSVFLFPPKPKDTLMISRTPEVTCVVVDVSHEDPEVKFNWYVDGVEVHNAKTKPREEQYNSTYRVVSVLTVLHQDWLNGKEYKCKVSNKALPAPIEKTISKAKGQPREPQVYTLPPSREEMTKNQVSLTCLVKGFYPSDIAVEWESNGQPENNYKTTPPVLDSDGSFFLYSKLTVDKSRWQQGNVFSCSVMHEALHNHYTQKSLSLSPGK
light: DIQLTQSPSFLSASVGDRVTITCRASQGISSYLAWYQQKPGKAPKLLIYAASTLQSGVPSRFSGSGSGTEFTLTISSLQPEDFATYYCQQLASYPWTFGQGTKVEIKRTVAAPSVFIFPPSDEQLKSGTASVVCLLNNFYPREAKVQWKVDNALQSGNSQESVTEQDSKDSTYSLSSTLTLSKADYEKHKVYACEVTHQGLSSPVTKSFNRGEC
notes: VH of PR006248 (PD-L1) - GS_5 - heavy chain of CD40 IgG PR006495; human IgG1 L234A/L235A/G237A; also called PD-L1×CD40
B2: PR007617 (bispecific antibody, human IgG1, kappa)
heavy: QVQLVESGGGVVQPGMSLRLSCAASGFDFSSYGMYWVRQAPGKGQEWVASIRYTGTEKHYADSVKGRFTISRDNSKNTLYLEMNSLRVEDTAVYYCAKNRAIFGVIPDDSDIRGQGTMVTVSSGGSQVQLVQSGAEVKKPGASVKVSCKASGYTFAGYYMYWVRQAPGQGLEWMGWINPDSGAPTYAQKFQGRVTMTRDTSISTAYMELSRLRSDDTAVYYCAREKIYYGSGNYYPSFDYWGQGTLVTVSSASTKGPSVFPLAPSSKSTSGGTAALGCLVKDYFPEPVTVSWNSGALTSGVHTFPAVLQSSGLYSLSSVVTVPSSSLGTQTYICNVNHKPSNTKVDKKVEPKSCDKTHTCPPCPAPEAAGAPSVFLFPPKPKDTLMISRTPEVTCVVVDVSHEDPEVKFNWYVDGVEVHNAKTKPREEQYNSTYRVVSVLTVLHQDWLNGKEYKCKVSNKALPAPIEKTISKAKGQPREPQVYTLPPSREEMTKNQVSLTCLVKGFYPSDIAVEWESNGQPENNYKTTPPVLDSDGSFFLYSKLTVDKSRWQQGNVFSCSVMHEALHNHYTQKSLSLSPGK
light: B1 light
notes: VH of PR006246 (PD-L1) - GS_3 - heavy chain of CD40 IgG PR006495; human IgG1 L234A/L235A/G237A; also called PD-L1×CD40
B3: PR007620 (bispecific antibody, human IgG1, kappa)
heavy: B2 heavy with I102L
light: B1 light with A92V
notes: VH of PR006248 (PD-L1) - GS_3 - heavy chain of CD40 IgG PR006504; human IgG1 L234A/L235A/G237A; also called PD-L1×CD40
B4: PR007281 (bispecific antibody, human IgG1, kappa)
heavy: B1 heavy with L102I
light: B1 light with A92V
notes: VH of PR006246 (PD-L1) - GS_5 - heavy chain of CD40 IgG PR006504; human IgG1 L234A/L235A/G237A; also called PD-L1×CD40
B5: PR007616 (bispecific antibody, human IgG1, kappa)
heavy: B1 heavy
light: B1 light with A92Y
notes: VH of PR006248 (PD-L1) - GS_5 - heavy chain of CD40 IgG PR006497; human IgG1 L234A/L235A/G237A; also called PD-L1×CD40
B6: PR007556 (bispecific antibody, human IgG1, kappa)
heavy: B1 heavy
light: B1 light with A92F
notes: VH of PR006248 (PD-L1) - GS_5 - heavy chain of CD40 IgG PR006496; human IgG1 L234A/L235A/G237A; also called PD-L1×CD40
B7: PR007618 (bispecific antibody, human IgG1, kappa)
heavy: B2 heavy with I102L
light: B1 light
notes: VH of PR006248 (PD-L1) - GS_3 - heavy chain of CD40 IgG PR006495; human IgG1 L234A/L235A/G237A; also called PD-L1×CD40
B8: PR007280 (bispecific antibody, human IgG1, kappa)
heavy: B1 heavy with L102I, I106V, D109A
light: B1 light with A92V
notes: VH of PR006245 (PD-L1) - GS_5 - heavy chain of CD40 IgG PR006504; human IgG1 L234A/L235A/G237A; also called PD-L1×CD40
B9: PR007282 (bispecific antibody, human IgG1, kappa)
heavy: B1 heavy with D109A
light: B1 light with A92V
notes: VH of PR006247 (PD-L1) - GS_5 - heavy chain of CD40 IgG PR006504; human IgG1 L234A/L235A/G237A; also called PD-L1×CD40

Tests used:
[1] = molecular target: T1, human CD40 (human, UniProt P25942 21-277); assay: FACS, Raji cells
T1 construct: whole, on cells; also called hCD40; TNFRSF5
Procedure: (§1) The cells were incubated at 4° C. for 1 hours in the dark. After the incubation, the cells were rinsed twice by adding pre-chilled PBS at 100 μL/well, and centrifuged at 500 g at 4° C. for 5 minutes, and the supernatant was discarded. Then, a fluorescent secondary antibody (goat anti-human IgG (H+L) secondary antibody, Alexa Fluor® 488 conjugate, Invitrogen, #A11013, 1:1000 dilution) was added at 100 μL/well, and the cells were incubated at 4° C. for 30 minutes in the dark. The cells were washed twice with pre-chilled PBS at 200 μL/well, and centrifuged at 500 g at 4° C. for 5 minutes, and the supernatant was discarded. Finally, the cells were resuspended in pre-chilled PBS at 200 μL/well. The fluorescence signal values were read using a BD FACS CANTOII flow cytometer or ACEA NovoCyte flow cytometer, and the data were processed and analyzed using FlowJo v10 software (FlowJo, LLC).

[2] = molecular target: T2, human PD-L1 (human, UniProt Q9NZQ7 19-290); assay: FACS, NCI-H226 cells
T2 construct: whole, on cells; also called hPD-L1; CD274
Procedure: (§2) Specifically, the cells expressing PD-L1 were digested and resuspended in PBS buffer containing 2% BSA. The cells were adjusted to a cell density of 1×10⁶ cells/mL, respectively. The cells were seeded in a 96-well V-bottom plate (Corning, #3894) at 100 μL/well, and the antibody to be tested at 2×final concentration with 4-fold concentration gradient dilution was then added at 100 μL/well. The cells were incubated at 4° C. for 2 hours in the dark. After the incubation, the cells were rinsed twice by adding pre-chilled PBS containing 2% BSA at 100 μL/well, and centrifuged at 500 g at 4° C. for 5 minutes, and the supernatant was discarded. […] The cells were washed twice by adding pre-chilled PBS containing 2% BSA at 100 µL/well, and centrifuged at 500 g at 4° C. for 5 minutes, and the supernatant was discarded. Finally, the cells were resuspended in pre-chilled PBS buffer containing 2% BSA at 200 μL/well. The fluorescence signal values were read using a BD FACS CANTOII flow cytometer or ACEA NovoCyte flow cytometer, and the data were processed and analyzed using FlowJo v10 software (FlowJo, LLC).

[3] = molecular target: T2, human PD-L1; assay: cell-based or functional assay
[4] = molecular target: T1, human CD40; assay: cell-based or functional assay
[5] = molecular target: T1, human CD40; assay: FACS, CHO-K1/hCD40 cells
Procedure: as §1

[6] = molecular target: T2, human PD-L1; assay: FACS, CHO-K1/hPD-L1 cells
Procedure: as §2

[7] = molecular target: T3, cynomolgus monkey CD40 (cynomolgus monkey); assay: FACS, CHO-K1/cyCD40 cells
T3 construct: whole, on cells; also called cyCD40
Procedure: as §1

[8] = molecular target: T4, cynomolgus monkey PD-L1 (cynomolgus monkey); assay: FACS, CHO-K1/cyPD-L1 cells
T4 construct: whole, on cells; also called cyPD-L1
Procedure: as §2

T1 sequence (P25942 21-277): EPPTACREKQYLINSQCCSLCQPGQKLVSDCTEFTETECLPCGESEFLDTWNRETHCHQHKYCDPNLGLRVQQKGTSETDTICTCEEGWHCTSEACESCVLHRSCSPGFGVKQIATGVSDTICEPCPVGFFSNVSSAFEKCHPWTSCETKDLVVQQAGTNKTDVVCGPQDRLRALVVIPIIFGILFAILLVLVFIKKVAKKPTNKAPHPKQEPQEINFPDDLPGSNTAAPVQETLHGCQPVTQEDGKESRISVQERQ
T2 sequence (Q9NZQ7 19-290): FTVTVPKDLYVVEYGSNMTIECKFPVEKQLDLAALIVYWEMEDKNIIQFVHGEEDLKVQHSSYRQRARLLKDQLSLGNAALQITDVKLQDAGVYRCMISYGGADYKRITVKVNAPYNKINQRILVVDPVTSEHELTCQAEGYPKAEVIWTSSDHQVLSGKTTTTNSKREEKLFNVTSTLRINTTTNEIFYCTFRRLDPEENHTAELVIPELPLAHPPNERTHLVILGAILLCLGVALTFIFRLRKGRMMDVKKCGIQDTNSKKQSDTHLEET

Row | Binder | EC50 [1] [nM] | Maximum MFI [1] [MFI] | EC50 [2] [nM] | Maximum MFI [2] [MFI] | EC50, Jurkat-NFAT-hPD1 reporter [3] [nM] | Maximum (RLU), Jurkat-NFAT-hPD1 reporter [3] [RLU] | EC50, HEK293-hCD40-NFκB reporter, + CHO-K1 [4] [nM] | EC50, HEK293-hCD40-NFκB reporter, + CHO-K1/hPD-L1 [4] [nM] | Maximum (RLU), HEK293-hCD40-NFκB reporter, + CHO-K1 [4] [RLU] | Maximum (RLU), HEK293-hCD40-NFκB reporter, + CHO-K1/hPD-L1 [4] [RLU] | EC50 [5] [nM] | Maximum MFI [5] [MFI] | EC50 [6] [nM] | Maximum MFI [6] [MFI] | EC50 [7] [nM] | Maximum MFI [7] [MFI] | EC50 [8] [nM] | Maximum MFI [8] [MFI]
1 | B1 | 1.45 | 7570 | 0.569 | 927 | 0.273 | 4060 | 0.22 | 0.08 | 239000 | 379000 | 2.35 | 14300 | 1.18 | 19700 | 2.62 | 57000 | 0.656 | 4570
2 | B2 | 1.27 | 6850 | 0.337 | 831 | 0.157 | 2190 |  |  |  |  | 1.96 | 16800 | 1.01 | 20200 | 2.45 | 58700 | 0.635 | 4830
3 | B3 | 1.32 | 6710 | 0.281 | 1030 | 0.319 | 3740 |  |  |  |  | 2.2 | 15300 | 1.15 | 20300 | 2.48 | 68000 | 0.757 | 4840
4 | B4 | 1.46 | 7600 | 0.503 | 921 | 0.19 | 3840 |  |  |  |  | 2.13 | 14200 | 1.13 | 19900 | 3.63 | 65000 | 0.632 | 4610
5 | B5 | 1.24 | 6680 | 0.303 | 800 | 0.204 | 2590 |  |  |  |  | 1.99 | 19200 | 1.07 | 20300 | 2.22 | 64700 | 0.687 | 4750
6 | B6 | 1.28 | 6560 | 0.452 | 861 | 0.225 | 4080 |  |  |  |  | 1.69 | 14600 | 1.03 | 20100 | 2.58 | 55500 | 0.683 | 4720
7 | B7 | 1.23 | 6700 | 0.322 | 902 | 0.12 | 2470 |  |  |  |  | 2.22 | 16800 | 1.04 | 20100 | 3.07 | 67900 | 0.69 | 4870
8 | B8 | 1.65 | 7700 | 1.02 | 1020 | 0.295 | 2560 |  |  |  |  | 3.83 | 15000 | 1.58 | 20200 | 2.65 | 50100 | 1.02 | 4830
9 | B9 | 1.45 | 7520 | 0.61 | 983 | 0.188 | 2480 |  |  |  |  | 1.88 | 13500 | 1.46 | 20400 | 2.43 | 50100 | 0.834 | 4620
